# T1: PIAL2-Myc (Arabidopsis thaliana, UniProt F4JYG0 1-760)
# T1 construct: not shown: C-terminal 9XMYC tag and BLRP (pEG302 vector)
# T1 sequence: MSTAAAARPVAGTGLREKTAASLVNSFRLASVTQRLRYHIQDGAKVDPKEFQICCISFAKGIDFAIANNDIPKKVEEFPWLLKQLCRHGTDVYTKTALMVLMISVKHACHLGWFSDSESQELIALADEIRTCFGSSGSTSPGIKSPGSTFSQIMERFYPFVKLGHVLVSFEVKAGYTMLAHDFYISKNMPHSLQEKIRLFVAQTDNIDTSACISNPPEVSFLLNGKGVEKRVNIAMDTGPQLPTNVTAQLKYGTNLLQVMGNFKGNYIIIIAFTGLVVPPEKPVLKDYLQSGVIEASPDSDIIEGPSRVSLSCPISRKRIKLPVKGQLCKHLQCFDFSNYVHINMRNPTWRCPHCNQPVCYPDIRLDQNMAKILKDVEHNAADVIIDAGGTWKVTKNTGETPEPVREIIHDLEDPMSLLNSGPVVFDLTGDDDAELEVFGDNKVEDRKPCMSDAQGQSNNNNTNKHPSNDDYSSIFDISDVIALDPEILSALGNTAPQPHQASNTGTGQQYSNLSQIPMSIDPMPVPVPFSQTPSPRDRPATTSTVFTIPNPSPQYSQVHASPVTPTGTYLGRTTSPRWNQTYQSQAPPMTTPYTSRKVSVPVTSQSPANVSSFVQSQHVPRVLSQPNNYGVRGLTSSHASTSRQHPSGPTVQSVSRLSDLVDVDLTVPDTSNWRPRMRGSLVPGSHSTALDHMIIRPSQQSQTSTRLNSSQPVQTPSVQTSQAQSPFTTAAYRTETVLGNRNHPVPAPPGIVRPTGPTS
# T2: AT3G49850.1 TRB3 (Arabidopsis thaliana, UniProt Q9M2X3 1-295)
# T2 construct: Endogenous protein found by mass spectrometry
# T2 sequence: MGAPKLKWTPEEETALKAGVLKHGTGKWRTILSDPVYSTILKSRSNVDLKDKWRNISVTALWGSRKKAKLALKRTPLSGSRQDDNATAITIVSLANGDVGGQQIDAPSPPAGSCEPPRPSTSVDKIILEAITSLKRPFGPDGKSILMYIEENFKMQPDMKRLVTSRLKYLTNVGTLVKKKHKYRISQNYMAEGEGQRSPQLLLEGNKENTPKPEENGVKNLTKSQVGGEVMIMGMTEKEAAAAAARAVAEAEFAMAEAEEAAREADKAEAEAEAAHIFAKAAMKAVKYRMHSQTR
# T3: AT3G10480.3 NAC050 (Arabidopsis thaliana, UniProt Q9SQX9 1-447, limits assumed)
# T3 construct: Endogenous protein found by mass spectrometry
# T3 sequence (looked up): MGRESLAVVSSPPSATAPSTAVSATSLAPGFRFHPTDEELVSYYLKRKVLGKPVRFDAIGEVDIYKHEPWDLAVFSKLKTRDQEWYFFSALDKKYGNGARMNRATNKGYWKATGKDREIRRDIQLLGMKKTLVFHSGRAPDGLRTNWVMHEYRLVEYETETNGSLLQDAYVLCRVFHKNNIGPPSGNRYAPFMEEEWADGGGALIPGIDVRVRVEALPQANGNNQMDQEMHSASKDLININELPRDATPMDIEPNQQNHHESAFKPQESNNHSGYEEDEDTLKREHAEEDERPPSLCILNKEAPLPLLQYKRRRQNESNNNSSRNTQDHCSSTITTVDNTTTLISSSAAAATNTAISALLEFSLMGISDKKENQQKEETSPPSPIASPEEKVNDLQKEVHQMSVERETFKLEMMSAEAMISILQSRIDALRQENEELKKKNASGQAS
# T4: AT5G67580.1 TRB2 (Arabidopsis thaliana, UniProt Q9FJW5 1-299)
# T4 construct: Endogenous protein found by mass spectrometry
# T4 sequence: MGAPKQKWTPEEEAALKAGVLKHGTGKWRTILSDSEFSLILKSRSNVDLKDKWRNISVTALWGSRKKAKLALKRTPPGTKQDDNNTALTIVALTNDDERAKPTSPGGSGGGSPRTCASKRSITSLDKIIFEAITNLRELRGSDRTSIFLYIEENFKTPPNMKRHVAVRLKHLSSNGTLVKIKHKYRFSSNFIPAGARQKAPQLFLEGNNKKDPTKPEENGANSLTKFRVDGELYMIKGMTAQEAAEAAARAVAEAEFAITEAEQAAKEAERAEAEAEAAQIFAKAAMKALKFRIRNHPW
# T5: AT1G49950.3 TRB1 (Arabidopsis thaliana, UniProt Q8VWK4 1-300, limits assumed)
# T5 construct: Endogenous protein found by mass spectrometry
# T5 sequence: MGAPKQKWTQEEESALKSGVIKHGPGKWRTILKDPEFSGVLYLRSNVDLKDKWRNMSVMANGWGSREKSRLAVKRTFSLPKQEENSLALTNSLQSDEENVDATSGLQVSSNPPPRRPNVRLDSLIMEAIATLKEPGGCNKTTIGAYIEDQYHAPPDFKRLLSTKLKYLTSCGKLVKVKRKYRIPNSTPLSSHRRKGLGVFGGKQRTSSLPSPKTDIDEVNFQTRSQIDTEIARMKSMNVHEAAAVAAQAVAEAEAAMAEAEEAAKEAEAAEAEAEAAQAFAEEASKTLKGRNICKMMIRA
# T6: AT2G17540.2 TRBIP2 (Arabidopsis thaliana)
# T6 construct: Endogenous protein found by mass spectrometry
# T6 chain: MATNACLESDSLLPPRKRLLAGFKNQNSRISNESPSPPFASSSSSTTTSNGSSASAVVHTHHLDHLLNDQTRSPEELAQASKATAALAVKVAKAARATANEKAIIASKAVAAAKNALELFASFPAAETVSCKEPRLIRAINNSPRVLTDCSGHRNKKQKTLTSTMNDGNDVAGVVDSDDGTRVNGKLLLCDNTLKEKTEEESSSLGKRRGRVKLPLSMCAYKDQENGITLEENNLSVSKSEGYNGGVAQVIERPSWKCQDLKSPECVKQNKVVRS
# How the values were obtained:
# PIAL2-Myc = target: T1, PIAL2-Myc; test: co-IP, anti-FLAG, crossed lines
# Description: The Co-IP assays in this study were performed by following previous protocol (see e.g., Wang, Science, 2016) with some modifications. 2 grams of 2-week-old seedling tissue were collected from Arabidopsis transgenic lines: JMJ14-FLAG×TRB1-Myc and TRB1-Myc; MORC6-FLAG×PIAL2-Myc and PIAL2-Myc. The samples were ground into fine powder with liquid nitrogen, resuspended with 10 mL IP buffer, and incubate 20 minutes at 4° C. The lysate was centrifuged and filtered through Miracloth for two times, and the supernatant was incubated with 30 μL anti-FLAG M2 Affinity Gel (Millipore) for 2 hours at 4° C. The anti-FLAG beads were washed with IP buffer for a total of 5 times, and the protein was eluted with 40 μL elution buffer (IP buffer containing 100 μg/mL 3×FLAG peptide as final concentration). The supernatant was mixed with 5×SDS loading buffer and subject to Western blot.
# AT3G49850.1 TRB3 [1] = target: T2, AT3G49850.1 TRB3; test: IP-MS rep 1
# Summary of the method: (§1)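 Ten grams of unopened floral buds from Col-0 wild type and FLAG-tagged transgenic Arabidopsis lines were ground in liquid nitrogen, homogenised in 25 mL IP buffer and filtered through Miracloth. Lysates were incubated with 250 μL anti-FLAG M2 magnetic beads at 4° C for 2 hours, washed and eluted with TBS containing 250 μg/mL 3×FLAG peptides. Eluted proteins were precipitated with trichloroacetic acid and analysed by mass spectrometry to give peptide counts for co-purified proteins.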
# AT3G10480.3 NAC050 [2] = target: T3, AT3G10480.3 NAC050; test: IP-MS rep 1
# Summary of the method: as §1
# AT5G67580.1 TRB2 [3] = target: T4, AT5G67580.1 TRB2; test: IP-MS rep 1
# Summary of the method: as §1
# AT5G08450.1 HDC1 [4] = target: T7, AT5G08450.1 HDC1 (Arabidopsis thaliana); test: IP-MS rep 1
# T7 construct: Endogenous protein found by mass spectrometry
# Summary of the method: as §1
# AT1G49950.3 TRB1 [5] = target: T5, AT1G49950.3 TRB1; test: IP-MS rep 1
# Summary of the method: as §1
# AT2G17540.2 TRBIP2 [6] = target: T6, AT2G17540.2 TRBIP2; test: IP-MS rep 1
# Summary of the method: as §1
# AT3G49850.1 TRB3 [7] = target: T2, AT3G49850.1 TRB3; test: IP-MS rep 2
# Summary of the method: as §1
# AT3G10480.3 NAC050 [8] = target: T3, AT3G10480.3 NAC050; test: IP-MS rep 2
# Summary of the method: as §1
# AT5G67580.1 TRB2 [9] = target: T4, AT5G67580.1 TRB2; test: IP-MS rep 2
# Summary of the method: as §1
# AT5G08450.1 HDC1 [10] = target: T7, AT5G08450.1 HDC1; test: IP-MS rep 2
# Summary of the method: as §1
# AT1G49950.3 TRB1 [11] = target: T5, AT1G49950.3 TRB1; test: IP-MS rep 2
# Summary of the method: as §1
# AT2G17540.2 TRBIP2 [12] = target: T6, AT2G17540.2 TRBIP2; test: IP-MS rep 2
# Summary of the method: as §1
binding result (PIAL2-Myc),IP-MS count (AT3G49850.1 TRB3 [1]),IP-MS count (AT3G10480.3 NAC050 [2]),IP-MS count (AT5G67580.1 TRB2 [3]),IP-MS count (AT5G08450.1 HDC1 [4]),IP-MS count (AT1G49950.3 TRB1 [5]),IP-MS count (AT2G17540.2 TRBIP2 [6]),IP-MS count (AT3G49850.1 TRB3 [7]),IP-MS count (AT3G10480.3 NAC050 [8]),IP-MS count (AT5G67580.1 TRB2 [9]),IP-MS count (AT5G08450.1 HDC1 [10]),IP-MS count (AT1G49950.3 TRB1 [11]),IP-MS count (AT2G17540.2 TRBIP2 [12]),Binder
binds,–,–,–,–,–,–,–,–,–,–,–,–,"MORC6-FLAG (other, Arabidopsis thaliana, UniProt Q56Y74 1-663, looked up, not shown: FLAG tag (3xFLAG-BLRP vector described)) MSHDRSVNVSHDAVIAKPERGTMLQSFSPRSHGSKGYSLPQDSEENRGSVGQSAGQSSTSVVDQVRSPADDAGVTSSSTICPAPVCRQFWKAGSYNDELSSKSQQPNGKNYLHVHPMFLHSNATSHKWAFGAVAELLDNAVDEIQNGATFVIVDKTTNPRDGATALLIQDDGGGMDPQAMRHCMGFGFSDKKSDSAIGRYGNGFKTSTMRLGADVIVFSRHSKNQTLTQSIGLLSYTYLTRTGHDRIVVPILDYEFNASAGEFKTLQDREHFISSLSILLEWSPFSTEAELLQQFDDVGPHGTKVIIYNMWLNSDAKLELDFDSVAEDILIEGSIKKTGSKIVNDHIASRFSYSLRVYLSILYLRIPETFKIILRGKVVEHHNVADDLMHPQYILYKPQAAGSEEALVVTTIGFLKEAPKVNLHGFCVYHKNRLIMPFWQVINYSSSRGRGVVGVLEANFVEPTHNKQDFEKTVLLQKLENRLKEMTVEYWSCHCVLIGYQVNKKPRLQIPQKVQPAGRQALSPPPGFQAVFPQGNTTSLPRVSTQPVLLEKRKEHPDSVASAALKRKVGNDDFTVPGHIRVEQFIHGSASQSQDIETVKLMEENKKLRAKCLDRKVRSQNLEVKAMNLRSELENYKSEYERLMVELQALDLVKDEHRRNVNT"
–,31,2,66,8,39,0,19,0,36,2,15,0,"TRBIP1 (bait of the TRBIP1 IP-MS) (other, not shown: small tags and cut ends, tag and its position not described; also called TRBIP1-1; TRBIP1-2) METNPCDMNQLDSDSHLPPRKRLLAGFKKFNSNGINGSSPSDFASSSSTSNSNGSSSASTNVQTHLGNLLSSPFNNDQSPEELVEATRSAAALAVKAAKAARAIANEKALISAKAIAAAKRALELVDSFPKEAMADCKERSPRKNKQKKHVPVELLYSKGQLRDEEDDLARRLHRAIDNTSYPRVLRTSEENGQRYKKQKKNKSVVEGGSSSIIVTGSMKDIAGVVDSDSSYEGLEIARSNRDEADSMLMMEKSGEESNSLVKRRGRVKLKKLPLSICNSRNQENGTSSASPLPVAQPQEDGGAITVIAGSSSWKCQDIKAPECVKQNKAVRS"
